The text below walks through data of paper PMC11580873.

This assay deals with V5-FoTO1 (Taxus media). Briefly: co-IP.

“T5αH-HA (from UniProt Q6WG30 1-499) (enzyme)” registered a fold change of the co-IP signal with 400 uM taxadiene in the lysate of 4 fold.
